# Results published in PMC12081870 (Communications Biology, 2025).
# Tests used:
# actin = assay: Pyrene actin assay, actin polymerisation in the absence of Arp2/3; assay type: biochemical, rabbit; details: no Arp2/3, 300 nM fragment, 3 µM actin
# Method: 300 nM each fragment; 3 µM actin. […] Error bars are standard error of mean.
# Rabbit skeletal muscle actin was gel filtered as described. Concentrations of G-actin produced and used in experiments were in the range 35–65 µM.
# (§1) Fluorometry assays were performed as described previously. 370 μl assays used 3 μM actin as indicated unless otherwise specified. Pyrene-actin was added to 5%, mixed thoroughly, and added to the fluorometry cuvette. Polymerization salts, 10× KME (500 mM KCl, 10 mM MgCl2, 10 mM EGTA, 100 mM Tris-HCl [pH 8.0]) were mixed with fragments or G buffer to give final concentration of 0.5× KME before reading fluorescence. […] Experiments were carried out three separate times with different protein preparations and a representative graph shown.
# G-actin [1] = assay: MST, Las17 300-422 P387A / P388A to labelled G-actin; assay type: binding, rabbit; details: three repeats, not statistically significant
# Description: (§2) A Purified individual GST-tagged Sla1 SH3 domains were used to probe a Celluspot array consisting of a series of 12 amino acid peptides starting with residue 181, and subsequent peptides starting at two amino acid intervals, up to amino acid 540. Binding of GST-Sla1 SH3 to the array was identified by further probing of HRP-tagged anti-GST and subsequent visualisation using chemiluminescence. […] Error bars are standard error of mean.
# The small reduction was not found to be statistically significant over three repeats.
# (§3) Microscale Thermophoresis (MST) assays were performed as described previously. Briefly, rabbit muscle actin in G-buffer minus DTT was […] using Monolith NT^TM Protein Labelling Kit RED-Malemide (NanoTemper Technologies, Munich, Germany). […] Each reaction was then loaded into Monolith NT.115 Premium Treated Capillaries (NanoTemper Technologies) and thermophoresis was measured in a Monolith NT.115 Microscale Thermophoresis device (NanoTemper Technologies). Thermophoresis was measured at 20% red LED power and 40% IR laser power at 22°C. Fnorm was calculated from the ratio of fluorescence before heating and after the new equilibrium had been reached. […] Each experiment was carried out three separate times with protein from different protein preparations and mean ± SE shown except for Fig. 7a where mean ± SD is shown.
# [2] = test system: Las17 and las17 P387A expressing yeast strains; assay: Latrunculin-A halo assay on yeast; assay type: cell-based, Saccharomyces cerevisiae; details: 10 µl latrunculin-A disc, halo assay, 5 repeats
# Method: Supplementary Information.
# Methods used in Supplementary Data
# Yeast strains, growth and staining
# Yeast plasmids used in this study are listed in Supplementary table 1 and yeast strains used in Supplementary table 2. Unless stated otherwise, cells were grown with rotary shaking at 30°C in liquid YPD medium (1% yeast extract, 2% Bacto-peptone, 2% glucose supplemented with 40 μg/ml adenine) or in synthetic medium (0.67% yeast nitrogen base, 2% glucose) with appropriate supplements. Growth assays used solid medium with 2% agar added to above. All strains carrying fluorescent tags have growth properties similar to isogenic control strains with the exception of strains carrying dual reporters where lifetimes were longer for both wild type and mutant strains (in Figure 9D). Point mutations in LAS17 were generated using site directed mutagenesis (Agilent). DNA cassettes carrying mutations for integration were transformed into KAY1801. Mutant colonies were counter-selected on minimal medium, containing 0.005% uracil and 0.1% 5’-Fluoroorotic Acid (5-FOA; Melford labs). […]
# expressing strains on plates on which a disc carrying 10 µl of latrunculin-A of varying concentrations was placed (white disc). […] They were then scored according to the extent of uptake and categorised according to the key shown. >100 cells were visualised for each strain in each of 3 independent experiments. […]
# [3] = biological target: Las17 PPR-N fragment (residues 300-422), wild type (S. cerevisiae) (UniProt Q12446); assay: BLI; Octet R2 (Sartorius); Octet NTA Biosensors or Octet GST Biosensors, which partner was loaded is not stated; repeated three times; the constant of SH3#1-3 is called apparent
# [4] = biological target: Las17 PPR-N fragment (residues 300-422); assay: Biolayer Interferometry (BLI), Sla1 SH3 domains to Las17 PPR-N; assay type: binding, Saccharomyces cerevisiae; details: Biolayer Interferometry
# Description: (§4) To investigate binding characteristics of the SH3 domains further, Sla1 SH3 protein domains were purified. Three Sla1 SH3 single domains, tandem domains Sla1 SH3#1&2, Sla1 SH3#1&2 W108A (in which the W108A mutation prevents proline motif binding by SH3#2 but not SH3#1) and a fragment with all three SH3 domains were expressed recombinantly and purified. […] This outcome is in line with original research of Rodal and colleagues and with more recent studies of avidity developed by Williamson, which highlighted the importance of tandem binding SH3 domains[13],[27].
# Biolayer Interferometry (BLI) assays were performed using an OctetⓇ R2 (Sartorius). Protein samples were placed into the wells of a polystyrene plate (ProxiPlateTM, Perkin Elmer) and binding measured either with Octet NTA Biosensors or Octet GST Biosensors. Screening assays were performed to determine the optimum loading concentration and time for each binding pair to ensure that the probe was not saturated. All experiments were repeated three times, each time with newly prepared protein. Analysis and visualisation were performed using GraphPad Prism 10.0.2.
# [5] = test system: Las17-Arp2/3 mediated actin polymerisation; details: 15 nM Las17, 1 µM Sla1 SH3 domains, ref [13]; cited from earlier work
# Description: In Sla1 the first two SH3 domains are immediately juxtaposed with no linker. There are then 236 residues before the third SH3 domain (Fig. 1A).
# [6] = test system: Las17-Arp2/3 mediated actin polymerisation; assay: Pyrene actin assay, inhibition of Las17-Arp2/3 mediated actin polymerisation by Sla1 SH3 domains; assay type: biochemical; details: Actin 3 µM, Las17 300 nM, Sla1 SH3 domains 300 nM each (1:1), with Arp2/3
# Method: SH3 domains of Sla1 are numbered #1, #2 and #3. […] PP in pink boxes indicate poly-proline tracts in this region. Other regions of Las17 are included but not to scale. B Representative pyrene actin assays show inhibition of Las17-Arp2/3 mediated actin polymerisation by Sla1-SH3 domains when added as separate domains (orange #1, green #2 or cyan #3) or on a single peptide (red). […] Sla1 SH3#1 (aa 3-68), SH3#3 (aa 354-413), SH3#1-2 (aa 5-131), SH3#1-3 (aa 5-413).
# as §1
# G-actin [7] = assay: MST, Las17 300-422 to labelled G-actin in presence or absence of Sla1 SH3#1-3 (competition); assay type: binding, rabbit; details: Sla1 SH3#1-3 4.5 µM, actin 50 nM, Las17(300–422) 0.29-9.5 µM
# Method: The experiment was then repeated with the addition of Sla1 SH3#1-3 fragment at 4.5 µM.
# Error bars are standard deviation.
# Microscale Thermophoresis (MST) assays were performed as described previously[15]. Briefly, rabbit muscle actin in G-buffer minus DTT was lysine labelled using Monolith NT^TM Protein Labelling Kit RED-Malemide (NanoTemper Technologies, Munich, Germany). […] Each reaction was then loaded into Monolith NT.115 Premium Treated Capillaries (NanoTemper Technologies) and thermophoresis was measured in a Monolith NT.115 Microscale Thermophoresis device (NanoTemper Technologies). Thermophoresis was measured at 20% red LED power and 40% IR laser power at 22°C. Fnorm was calculated from the ratio of fluorescence before heating and after the new equilibrium had been reached.
# Las17 = assay: Microscale thermophoresis, Sla1 SH3#2 to Las17; assay type: binding, Saccharomyces cerevisiae; details: could not be saturated within the concentration range
# Description: as §4, §3
# [8] = test system: Las17 12mer peptides / GST-Sla1 SH3 domains; assay: Peptide spot array (Celluspot) of Las17 12mers probed with GST-Sla1 SH3 domains; assay type: binding, Saccharomyces cerevisiae; details: GST-Sla1 SH3 domain on 12mer array, 2-residue offset, anti-GST HRP, chemiluminescence
# Method: as §2
# They were incubated with GST fused SH3 domains of Sla1 or with GST alone, as described in ref.[57]. Membranes were probed with HRP tagged anti-GST, and the presence of SH3-GST fusion protein was detected with ECL chemiluminescent detection solution (Thermo Fisher Scientific).
molecule,measurement,setting,value
"Las17(342–392): minimal Las17 fragment with two arginine-pair actin sites, left on GST tag",stimulation of Arp2/3-independent actin polymerisation,actin,unable to stimulate Arp2/3-independent actin polymerisation
Las17 (300–422) P388A: Las17 (300–422) with P388A mutation,effect on actin binding,G-actin [1],little change in actin binding
"C/C1=C/C(=O)O[C@@H]2C[C@@H](CC[C@H](C)/C=C\C=C\CC1)O[C@@](O)([C@@H]1CSC(=O)N1)C2 [latrunculin-A, reference compound]",increase in Lat-A sensitivity of las17 P387A compared to wild type,[2],7 fold
Las17(300–633): Las17 fragment containing both PPR and VCA,stimulation of Arp2/3-independent actin polymerisation,actin,able to stimulate actin polymerisation in the absence of Arp2/3
Sla1 SH3#1&2 W108A (domain or fragment),Kd,[3],7.4 µM
Las17 (300–422) P387A: Las17 (300–422) with P387A mutation,effect on actin binding,G-actin [1],little change in actin binding
"Sla1 SH3#1-3: SH3#1-3 (aa 5-413), fragment with all three SH3 domains (protein, left off: GST, end not stated, cleaved, SH3#1-3 (aa 5-413), fragment with all three SH3 domains) LGIYRAVYAYEPQTPEELAIQEDDLLYLLQKSDIDDWWTVKKRVIGSDSEEPVGLVPSTYIEEAPVLKKVRAIYDYEQVQNADEELTFHENDVFDVFDDKDADWLLVKSTVSNEFGFIPGNYVEPENGSTSKQEQAPAAAEAPAATPAAAPASAAVLPTNFLPPPQHNDRARMMQSKEDQAPDEDEEGPPPAMPARPTATTETTDATAAAVRSRTRLSYSDNDNDDEEDDYYYNSNSNNVGNHEYNTEYHSWNVTEIEGRKKKKAKLSIGNNKINFIPQKGTPHEWSIDKLVSYDNEKKHMFLEFVDPYRSLELHTGNTTTCEEIMNIIGEYKGASRDPGLREVEMASKSKKRGIVQYDFMAESQDELTIKSGDKVYILDDKKSKDWWMCQLVDSGKSGLVPAQFIEPV",Kd,"[4]; Octet R2, Las17 (aa 300-422), three repeats with newly prepared protein, read-out: binding affinity (Kd)",0.039 µM
same,inhibition of actin polymerisation activity,[5],about 85%
same,inhibition of Las17-Arp2/3 mediated actin polymerisation,[6],substantial inhibition of actin polymerisation
same,fold change in apparent Kd of actin for Las17,G-actin [7],40 fold
same,fold change in apparent Kd of actin for Las17,G-actin [7]; listed as Sla1,40.6 fold
"Sla1 SH3#2: second SH3 domain of Sla1, GST-Sla1 SH3#2 in pGEX4T1 (protein, left off: GST, end not stated, cleaved, second SH3 domain of Sla1, GST-Sla1 SH3#2 in pGEX4T1) PVLKKVRAIYDYEQVQNADEELTFHENDVFDVFDDKDADWLLVKSTVSNEFGFIPGNYVEPENG",binding,[4]; result in words,showed no binding
same,inhibition of actin polymerisation activity,[5],about 80%
same,binding,Las17,weak binding was detected
same,binding to Las17 peptide spots,[8],only showed weak binding to spots
